Measured values from patent US20240327538A1 (AMUNIX PHARMACEUTICALS, published 2024).
Each block holds one binder with its values, some of them ahead of it.

Legend:
[1] = target: T1, cynomolgus monkey CD3 epsilon (cynomolgus monkey, UniProt Q95LI5 22-117, limits assumed); assay: Biacore
T1 construct: also called cyCD3e
T1 sequence (looked up): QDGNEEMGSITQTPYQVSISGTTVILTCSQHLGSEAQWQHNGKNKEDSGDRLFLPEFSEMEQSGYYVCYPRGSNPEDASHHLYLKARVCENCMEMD

human CD3 epsilon [2] = target: T2, human CD3 epsilon (human, UniProt P07766 23-126, limits assumed); assay: Biacore
T2 construct: also called huCD3e

human PSMA [3] = target: T3, human PSMA (human, UniProt Q04609 44-750, limits assumed); assay: BLI or SPR
T3 construct: also called huPSMA
Excerpt: (§1) The values are reported below in Table 19 for PSMA and Table 20 for CD3.

cynomolgus monkey PSMA [4] = target: T4, cynomolgus monkey PSMA (cynomolgus monkey, UniProt A0A2K5VNZ0 44-750); assay: BLI or SPR
T4 construct: also called cyPSMA; Cyno PSMA
Excerpt: as §1

[5] = target: T5, PSMA on human prostate cancer cell lines (LNCaP, 22Rv1) (human, UniProt Q04609 1-750); assay: cell-based or functional assay
human PSMA [6] = target: T3, human PSMA; assay: Biacore
cynomolgus monkey PSMA [7] = target: T4, cynomolgus monkey PSMA; assay: Biacore
human PSMA [8] = target: T3, human PSMA; assay: Octet
cynomolgus monkey PSMA [9] = target: T4, cynomolgus monkey PSMA; assay: Octet
[10] = target: T5, PSMA on human prostate cancer cell …; assay: cell-based or functional assay; remark: listed apart in the source
Cyno CD3 = target: T6, Cyno CD3 (cynomolgus monkey, UniProt Q95LI5 22-117); assay: BLI or SPR
T6 construct: also called cynomolgus monkey CD3; not shown: A CD3 delta partner cannot be excluded
T6 sequence: T1 sequence (looked up)

Human CD3 = target: T7, Human CD3 (human, UniProt P07766 23-126); assay: BLI or SPR
T7 construct: not shown: A CD3 delta partner cannot be excluded

[11] = target: T1, cynomolgus monkey CD3 epsilon; assay: Octet
human CD3 epsilon [12] = target: T2, human CD3 epsilon; assay: Octet
[13] = target: T8, human PSMA on PSMA-transfected CHO cells (human, UniProt Q04609 1-750); assay: binding to PSMA-transfected CHO cells, labeled secondary antibody to the anti-CD3 scFv
T8 construct: whole, on cells; also called Hu PSMA CHO
Method: (§2) Surface binding was detected with a labeled secondary antibody specific for the anti-CD3 scFv.
(§3) The binding affinities to both human and cyno PSMA and human and cyno CD3 epsilon were determined.

human PSMA-Fc [14] = target: T9, human PSMA-Fc (human, UniProt Q04609 44-750, limits assumed); assay: Octet
T9 construct: also called Human PSMA-Fc fusions; not shown: Fc part

human PSMA [15] = target: T3, human PSMA; assay: Pool 2 binding screen
human PSMA-Fc [16] = target: T9, human PSMA-Fc; assay: Octet, human PSMA-Fc
Method: Binding affinity of select PSMA PTE variants was tested by Octet.

human PSMA-Fc [17] = target: T9, human PSMA-Fc; assay: linker length / domain swap comparison
[18] = target: T10, cyno PSMA on PSMA-transfected CHO cells (cynomolgus monkey, UniProt A0A2K5VNZ0 1-750); assay: binding to PSMA-transfected CHO cells, labeled secondary antibody to the anti-CD3 scFv
T10 construct: whole, on cells; also called Cyno PSMA CHO
Method: as §2, §3

human PSMA-Fc [19] = target: T9, human PSMA-Fc; assay: Octet, human PSMA-Fc, 300-3.6 nM PSMA-uTCE

T5 sequence (Q04609 whole entry): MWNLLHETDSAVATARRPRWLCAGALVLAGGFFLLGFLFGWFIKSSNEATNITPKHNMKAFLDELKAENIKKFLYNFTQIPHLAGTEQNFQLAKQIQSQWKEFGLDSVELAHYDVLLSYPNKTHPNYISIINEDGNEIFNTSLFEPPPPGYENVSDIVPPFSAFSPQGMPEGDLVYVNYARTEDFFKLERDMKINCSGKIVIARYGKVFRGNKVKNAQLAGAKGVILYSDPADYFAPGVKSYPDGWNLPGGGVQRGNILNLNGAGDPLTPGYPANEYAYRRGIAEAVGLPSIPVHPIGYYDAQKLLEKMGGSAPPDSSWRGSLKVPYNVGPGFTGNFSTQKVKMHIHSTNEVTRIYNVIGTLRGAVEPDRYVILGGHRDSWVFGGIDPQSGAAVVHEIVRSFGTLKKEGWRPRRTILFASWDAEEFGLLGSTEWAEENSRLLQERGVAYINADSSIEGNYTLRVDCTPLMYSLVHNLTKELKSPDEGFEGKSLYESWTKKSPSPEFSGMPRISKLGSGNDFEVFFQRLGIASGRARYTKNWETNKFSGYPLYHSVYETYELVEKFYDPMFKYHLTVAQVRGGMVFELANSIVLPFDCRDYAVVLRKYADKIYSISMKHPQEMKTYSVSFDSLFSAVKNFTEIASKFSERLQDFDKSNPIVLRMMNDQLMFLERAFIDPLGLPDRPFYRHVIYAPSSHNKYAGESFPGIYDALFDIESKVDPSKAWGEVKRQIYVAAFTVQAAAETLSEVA
T7 sequence (P07766 23-126 limits assumed): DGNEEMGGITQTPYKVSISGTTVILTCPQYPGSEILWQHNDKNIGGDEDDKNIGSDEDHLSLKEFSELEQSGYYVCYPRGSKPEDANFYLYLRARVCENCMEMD
T2 sequence (P07766 23-126 limits assumed): as above
T9 sequence (Q04609 44-750 limits assumed): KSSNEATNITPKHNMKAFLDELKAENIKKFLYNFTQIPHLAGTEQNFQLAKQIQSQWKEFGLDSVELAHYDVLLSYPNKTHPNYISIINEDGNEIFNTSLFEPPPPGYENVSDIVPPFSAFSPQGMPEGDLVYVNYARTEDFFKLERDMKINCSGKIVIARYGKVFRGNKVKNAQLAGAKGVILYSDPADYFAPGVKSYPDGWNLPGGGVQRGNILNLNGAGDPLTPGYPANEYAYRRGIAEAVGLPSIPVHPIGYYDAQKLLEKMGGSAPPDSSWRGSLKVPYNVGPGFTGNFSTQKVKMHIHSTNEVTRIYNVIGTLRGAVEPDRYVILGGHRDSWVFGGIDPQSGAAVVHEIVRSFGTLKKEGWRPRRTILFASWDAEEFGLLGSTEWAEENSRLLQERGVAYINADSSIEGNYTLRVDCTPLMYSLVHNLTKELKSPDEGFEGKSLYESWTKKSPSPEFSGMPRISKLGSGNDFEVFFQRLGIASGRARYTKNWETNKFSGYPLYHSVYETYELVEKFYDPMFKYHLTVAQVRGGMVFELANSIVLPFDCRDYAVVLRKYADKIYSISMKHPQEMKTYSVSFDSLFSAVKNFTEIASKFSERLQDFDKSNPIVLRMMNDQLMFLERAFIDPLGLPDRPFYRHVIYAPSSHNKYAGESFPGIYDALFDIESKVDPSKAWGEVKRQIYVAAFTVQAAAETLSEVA
T3 sequence (Q04609 44-750 limits assumed): as above
T8 sequence (Q04609 whole entry): as the sequence (Q04609 whole entry) above

- Kd [1]: 13.7 nM
- Kd (human CD3 epsilon [2]): 12.8 nM
- Kd (human PSMA [3]): 44 nM
- koff (human PSMA [3]): 0.012 s⁻¹
- kon (human PSMA [3]): 270000 M⁻¹ s⁻¹
- Kd (cynomolgus monkey PSMA [4]): 410 nM
- koff (cynomolgus monkey PSMA [4]): 0.043 s⁻¹
- kon (cynomolgus monkey PSMA [4]): 100000 M⁻¹ s⁻¹
- Kd (human PSMA [6]): 11.7 nM
- Kd (cynomolgus monkey PSMA [7]): 230 nM
- Kd (human PSMA [8]): 12.1 nM
- Kd (cynomolgus monkey PSMA [9]): 201 nM
- Kd (Cyno CD3): 26 nM
- koff (Cyno CD3): 0.1 s⁻¹
- kon (Cyno CD3): 5e+06 M⁻¹ s⁻¹
- Kd (Human CD3): 28 nM
- koff (Human CD3): 0.1 s⁻¹
- kon (Human CD3): 4e+06 M⁻¹ s⁻¹
- Kd [11]: 38.8 nM
- Kd (human CD3 epsilon [12]): 33.2 nM
- EC50 [13]: 17.4 nM
B1: AMX-500(uTCE) (bispecific antibody)
chain: GTSESATPESQVQLVESGGGVVQPGRSLRLSCAASGRTFGIYVWGWFRQAPGKEREFVGAMSWSGSNRKVSDSVKGRFTISRDNSKNTLYLQMNSLRAEDTAVYYCAASNKEYGRTWYDFNESDYWGQGTQVTVSSGGGGSGGGSELVVTQEPSLTVSPGGTVTLTCRSSNGAVTSSNYANWVQQKPGQAPRGLIGGTNKRAPGTPARFSGSLLGGKAALTLSGVQPEDEAVYYCALWYPNLWVFGGGTKLTVLSESATPESGPGTSPGATPESGPGTSESATPEVQLVESGGGIVQPGGSLRLSCAASGFTFSTYAMNWVRQAPGKGLEWVGRIRTKRNNYATYYADSVKGRFTISRDDSKNTVYLQMNSLKTEDTAVYYCVRHENFGNSYVSWFAHWGQGTLVTVSSGTATPESGPG
notes: also called uTCE from AC3896; fully unmasked AMX-500; not shown: remnant of cleaved N-terminal release segment RSR-3213; remnant of cleaved C-terminal release segment RSR-3213
- in vitro cytotoxicity IC50, 22Rv1 cells with PBMC, donor 1 [5]: 0.691 nM
- in vitro cytotoxicity IC50, 22Rv1 cells with PBMC, donor 2 [5]: 1.34 nM
- in vitro cytotoxicity IC50, 22Rv1 cells with PBMC, donor 3 [5]: 1.3 nM
- in vitro cytotoxicity IC50, LNCaP PSMA-high cells with PBMC, donor 1 [10]: 0.024 nM
- in vitro cytotoxicity IC50, LNCaP PSMA-high cells with PBMC, donor 2 [10]: 0.015 nM
- in vitro cytotoxicity IC50, LNCaP PSMA-high cells with PBMC, donor 3 [10]: 0.016 nM
- in vitro cytotoxicity IC50, LNCaP PSMA-high cells with PBMC, donor 5 [10]: 0.032 nM

- Kd (human PSMA-Fc [14]): 3.2 nM
- Kd (human PSMA [15]): 4.1 nM
- Kd (human PSMA-Fc [16]): 3.2 nM
- koff (human PSMA-Fc [16]): 0.000248 s⁻¹
- kon (human PSMA-Fc [16]): 80000 M⁻¹ s⁻¹
B2: uTCE of AC3329 (bispecific antibody)
chain: LTGPRAPPEPEFARATSGSETPGTQVQLVESGGGVVQPGRSLRLSCAASGRTFGIYVMGWVRQAPGKEREFVAAISWSGSNRKVSDSVKGRFTISRDNSKNTLYLQMNSLRAEDTAVYYCAASNRLYGRTWYDFNESDYWGQGTQVTVSSGGGGSGGGSELVVTQEPSLTVSPGGTVTLTCRSSNGAVTSSNYANWVQQKPGQAPRGLIGGTNKRAPGTPARFSGSLLGGKAALTLSGVQPEDEAVYYCALWYPNLWVFGGGTKLTVLGATPPETGAETESPGETTGGSAESEPPGEGEVQLLESGGGIVQPGGSLKLSCAASGFTFNTYAMNWVRQAPGKGLEWVARIRSKYNNYATYYADSVKDRFTISRDDSKNTVYLQMNNLKTEDTAVYYCVRHENFGNSYVSWFAHWGQGTLVTVSSGTAEAASASGEAGRSANHTPAG
notes: unmasked TCE of this paTCE; also called PSMA.119; L59K

- Kd (human PSMA-Fc [14]): 3.9 nM
- Kd (human PSMA-Fc [17]): 3.9 nM
- koff (human PSMA-Fc [17]): 0.00027 s⁻¹
- kon (human PSMA-Fc [17]): 72000 M⁻¹ s⁻¹
- Kd (human PSMA [8]): 4.5 nM
- Kd (cynomolgus monkey PSMA [9]): 41.1 nM
- Kd (human PSMA-Fc [16]): 3.9 nM
- koff (human PSMA-Fc [16]): 0.000273 s⁻¹
- kon (human PSMA-Fc [16]): 72500 M⁻¹ s⁻¹
- Kd [11]: 64.6 nM
- Kd (human CD3 epsilon [12]): 71.9 nM
- EC50 [18]: 28.8 nM
- EC50 [13]: 9.06 nM
B3: uTCE from AC3092 (bispecific antibody)
chain: LTGPATSGSETPGTQVQLVESGGGVVQPGRSLRLSCAASGRTFGIYVMGWVRQAPGKEREFVAAISWSGSNRLVSDSVKGRFTISRDNSKNTLYLQMNSLRAEDTAVYYCAASNRLYGRTWYDFNESDYWGQGTQVTVSSGGGGSGGGSELVVTQEPSLTVSPGGTVTLTCRSSNGAVTSSNYANWVQQKPGQAPRGLIGGTNKRAPGTPARFSGSLLGGKAALTLSGVQPEDEAVYYCALWYPNLWVFGGGTKLTVLGATPPETGAETESPGETTGGSAESEPPGEGEVQLLESGGGIVQPGGSLKLSCAASGFTFNTYAMNWVRQAPGKGLEWVARIRSKYNNYATYYADSVKDRFTISRDDSKNTVYLQMNNLKTEDTAVYYCVRHENFGNSYVSWFAHWGQGTLVTVSSGTAEAASASGEAGRSANHTPAG
notes: unmasked TCE released from this paTCE; also called AMX-500-P1; PSMA.5-CD3.23 uTCE

- Kd (human PSMA-Fc [19]): 2.7 nM
- Kd (human PSMA-Fc [14]): 2.7 nM
- koff (human PSMA-Fc [16]): 0.00028 s⁻¹
- kon (human PSMA-Fc [16]): 104000 M⁻¹ s⁻¹
B4: uTCE of AC3265 (bispecific antibody, V domains shown)
VH: QVQLVESGGGVVQPGRSLRLSCAASGRTFGIYVMGWYRQAPGKEREFVAAISWSGSNRLVSDSVKGRFTISRDNSKNTLYLQMNSLRAEDTAVYYCAASNRLYGRTWYDFNESDYWGQGTQVTVSS
notes: VHH in uTCE with CD3.23 scFv (VL-VH), 9-residue linker; also called PSMA.55; V37Y

- Kd [1]: 26.6 nM
- Kd (human CD3 epsilon [2]): 27.3 nM
- Kd (human PSMA [6]): 19 nM
- Kd (cynomolgus monkey PSMA [7]): 354 nM
- Kd (human PSMA [8]): 13.2 nM
- Kd (cynomolgus monkey PSMA [9]): 198 nM
- Kd [11]: 44.9 nM
- Kd (human CD3 epsilon [12]): 43 nM
B5: uTCE from AC3928 (bispecific antibody)
chain: LTGPGTSESATPESQVQLVESGGGVVQPGRSLRLSCAASGRTFGIYVWGWFRQAPGKEREFVGAMSWSGSNRKVSDSVKGRFTISRDNSKNTLYLQMNSLRAEDTAVYYCAASNKEYGRTWYDFNESDYWGQGTQVTVSSGGGGSGGGSELVVTQEPSLTVSPGGTVTLTCRSSNGAVTSSNYANWVQQKPGQAPRGLIGGTNKRAPGTPARFSGSLLGGKAALTLSGVQPEDEAVYYCALWYPNLWVFGGGTKLTVLSESATPESGPGTSPGATPESGPGTSESATPEVQLLESGGGIVQPGGSLKLSCAASGFTFNTYAMNWVRQAPGKGLEWVARIRSKYNNYATYYADSVKDRFTISRDDSKNTVYLQMNNLKTEDTAVYYCVRHENFGNSYVSWFAHWGQGTLVTVSSGTATPESGPGEAGRSASHTPAG
notes: unmasked TCE released from this paTCE; also called PSMA.350-CD3.23 uTCE; AMX500-P6

- Kd [1]: 10.4 nM
- Kd (human CD3 epsilon [2]): 9.83 nM
- Kd (human PSMA [6]): 0.5 nM
- Kd (cynomolgus monkey PSMA [7]): 13 nM
- Kd (human PSMA [8]): 1.6 nM
- Kd (cynomolgus monkey PSMA [9]): 13.1 nM
- Kd [11]: 33.7 nM
- Kd (human CD3 epsilon [12]): 26.6 nM
B6: uTCE from AC3934 (bispecific antibody)
chain: LTGPGTSESATPESQVQLVESGGGVVQPGRSLRLSCAASGRTFGIYVWGWVRQAPGKEREFVGAISWSGSNRKVSDSVKGRFTISRDNSKNTLYLQMNSLRAEDTAVYYCAASNKLYGRTWYDFNESDYWGQGTQVTVSSGGGGSGGGSELVVTQEPSLTVSPGGTVTLTCRSSNGAVTSSNYANWVQQKPGQAPRGLIGGTNKRAPGTPARFSGSLLGGKAALTLSGVQPEDEAVYYCALWYPNLWVFGGGTKLTVLSESATPESGPGTSPGATPESGPGTSESATPEVQLVESGGGIVQPGGSLRLSCAASGFTFSTYAMNWVRQAPGKGLEWVGRIRTKRNNYATYYADSVKGRFTISRDDSKNTVYLQMNSLKTEDTAVYYCVRHENFGNSYVSWFAHWGQGTLVTVSSGTATPESGPGEAGRSASHTPAG
notes: unmasked TCE released from this paTCE; also called PSMA.262-CD3.228 uTCE
